# Test results: the nanobody polyreactivity screen of Harvey et al. (2022)
# Assay: yeast display, Sf9 membrane polyspecificity reagent, FACS + sequencing; frameworks hold sequencing errors
# Summary of the method: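 Nanobodies came from a synthetic yeast display library in Saccharomyces cerevisiae BJ5465, induced with galactose for 36–48 hours and stained for 1 hour at 4 °C with 10% biotinylated, detergent-solubilized Sf9 membrane reagent. Cells were enriched on streptavidin microbeads and then FACS-sorted, with low and high (top ~1%) gates set on anti-HA fluorescence for expression and streptavidin fluorescence for reagent binding. Each polyreactivity label reflects the gate a clone came from. Genes were amplified by colony PCR, sequenced by MiSeq 2 × 250 and filtered by CDR length.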
row,Sequence,polyreactivity (PSR sort gate)
1,QVQLEESGGGLVQAGGSLRISCAASVRTFKYYAMGWNRQAPGKETELVAAISWSGSSTSYADSVKGRFTISRDHAKNTVYLQMNSLKPEDTAVYYCAAATYRQFTGTYDYWGQGTQVTVSS,high polyreactivity
2,QVQLVESGGGLVQAGGSLRLSCAASGFTFYPYAMGWYRQAPGKERELVASITSAGGTNYADSVKGRFTISRDNAKNTVYLQMNSLKPEDTAVYYCAAKYRSRGPDYYFKSDYWGQGTQVTVSS,low polyreactivity
3,QVQLVESGGGLVQAGGSLRLSCAASVSIFAYYAMGLYRQAPGKERELVAAISRGGDTNYADSVKGRFTISRDNAKNTVYLQMNSLKPEDTAVSYCAATSYVRGYWYGYWGQGSQVTVSS,high polyreactivity
4,QVQLVESGGGLVQAGGSLRLSCAASGRTFRGNDMGWYRQAPGKERELVATITRNGGSTRYADSVKGRFTISRDNAKNTVYLQMNSLKPEDTAVYYCNARSRYFGYDYWGQGTQVTVSS,high polyreactivity
5,QVQLVESGVGLVQARGSLPLSCAASGSIFYYYVMGWYRQAPGKERELVAAIRSSGTSTYYADSVKGRFTISRDNAKNTVYLQRNSLKPEDTAVYYCNRARSSSRYDYWGQGTQVTVSS,low polyreactivity
6,QVQLVESGGGLVQAGGSLRLSCAASGSTFRGYAMGWYRQAPGKERELVAAISRSGGSTYYADSVKGRFTSSRDNAKNTVYLQMNSLKPEDTGVYYCAKRTSGYYWQWFDYCGQGTQVTVSS,high polyreactivity
7,QVQLVESGGGLVQAGGSLRLSCAASGFIFGTYAMGWYRHAPGKERELVAAISVGGGSTYYADSVKGRFTISRDNAKNTVYLQMNSLKPEDTAVYYCAAVQLFQKHQITYVANEYWGQGTQVTVSS,low polyreactivity
8,QVQIVESGGGLVQAGGSLRLSCAASGRTYKYYAMGWYRQAPGKERELDAGITSGSSTSYADSVKGRFTISRDNAKNTVYLQMNSLKPEDTAVYYCAAGIYPYRYDYWGQGTQVTVSS,high polyreactivity
9,QVQLVESGARLVQAVGSLRLSCAASARILTFNAMGWYRQAPGKEREVVASITSDVSTYYADSVKGRFTISRDNAKTTVYLQMNSLKPEDTAVYYCAADGWYTYVGRLDYWRQGTQVTVSS,low polyreactivity
10,QVQLEESGGGLVQAGGSLRLSCAASGRTFRINDMGWYRQAPGKERELVATINSTGSTNYADSVKGRFTISRDNAKNTVYLQMNSLKPEDTAVYYCNAYLYYYRYHYNYWGQGTQVTVSS,low polyreactivity
11,QVQLAESGAGLVQAGGSLRLSCAASGFTFFPYAMGWYIQAPGKERELVAGITYNGGSTYYADSVKGRFTISRDNAKNTVYLQMNSLKPEDTAVYYCNAGRIGGFDWGQGTQVTVSS,low polyreactivity
12,QVQLVESGGGLVQAGGSLRLSCAASGFTFRDYAMGWYRQAPGKERELVAAITRSGGRTYYADSVKGRFTISRDNAKNTVYLQMNSLKPEDTAVYYCNALDYLYGGIYLEEDYWGQGTQVTVSS,low polyreactivity
13,QVQLVESGGGLVQAGGSLRLSCAASGIIFPWYAMGWYRPAPGKERELVAAISGSGGSTYYADSVKGRFTISRDNAKNTVYLQMNSLKPEDTAVYYCAAYPRGSQRYNYGGQGTQVTVSS,high polyreactivity
14,HVQLVESGGGLVQAGGSLRLSCAASGIIFQRNAMGWYRQAPGKERELVAPISYSDGSTYYADSVKGRFTISRDNAKNTVYLQMNSLKPEDTAVYYCAARRFGRLALYFRFDYWGQGTQVTVSS,low polyreactivity
15,QVQLVESGGGLVQAGGSLRLSCAASGRIFRANAMGWYRQAPGKERELVAGITRRGGSTNYADSVKGRFTISRDNAKNTVYLQMNSLKPEDTAVYYCNRDVSLSTSIRMDYWGQGTQVTVSS,low polyreactivity
16,QVQLVESGGGLVQAGCSLRLSCAASGFTFTTYAMGWYRQSPGKERELVAAISRSTGSTYYADSVKGRFTISRDNAKNTVYLKMNSMKPEDTAVYYCNTVFPNGYLSKYYYWGQGTKVTVSS,high polyreactivity
17,QVQLVESVGGLVQAGGSLRLSCAASGITFFNYAMGWYRQAPGKERELVARINWSGGSTYYADSVTGRFTISRDNAKNTVYLQMNSLKPEDTAVYYCAARYWLPRGRRYDYWGQGTQVTVSS,high polyreactivity
18,QVQLVESGGGLVQAGGSLRLSCAASGSIFGPYVMGWYRQAPGKERELVAAISKSGGSTYYADSVKGRFTISRDNAKNTVYLQMNSLKPEDTAVYYCATDYLGGGKRYYYWGQGTQVTVSS,high polyreactivity
19,QVQLEESGGGLVQAGGSLRISCAASGFTFKYYVMGWYRQAPGKERFVAAITGSGASTYYADSVKGRFTISRDNAKNTVYLQMNSLKPEDTAVYYCNAVYYAGRYRYDYWGQGTQVTVSS,high polyreactivity
20,QVQLVESGGGLVQAGGSLRLSCAASGSTFVVNAMGWYRQAPGKERELVAAITLSTGSTYYADSVKGRFTISRDNAKNTVYLQMNSLKPEDTAVYYCNTEIYVDIISDYGYWGQGTEVTVSS,low polyreactivity
21,QVQLVESGGGLVQAGGSLRLSCAASGSIFYYYSMGWYRQAPGKERELVATISSTTSTYADSVKGRFTISRDNAKNTVYLQMNSLKPEDTAVYYCSYDYWGQGTQVTVSS,low polyreactivity
22,QVQLVESGGGLVQAGGSLRLSCAAYGSTFFRYAMGWYRQAPGKERELVAAISASTGSTYYADSVKGRFTISRDNAKNTVYLQMNSLKPEDTAVYYCNAELGYGTNDNWYDYWGKGTQVTVSS,low polyreactivity

row,Sequence,polyreactivity (PSR sort gate)
1,QVQLVESGGVLVQAGGSLRLTCAASGSNFVTNAMGWYRQAPGKERELVAAISVSGGSTYYADSVKGRFTISRDNAKNTVYLQMNSLKPEDTAVYYCNTVRSPAGHDYWGQGTQVTVSS,low polyreactivity
2,QVQLVESGGGLVQAGGSLRLTCAASGRIFYKYVMGWYRQAPGKERELVATITSGGSTYYADSVKGRFTISRDNAKNTVYLHMNSLKPEDTAVYYCAARKYYSRAYDYWGQGTQVTVSS,high polyreactivity
3,QVQLVESGGGLVQAGGSLRLSCAASGRIFGRNAMGWYRKAPGKERELVAAISWRGGNTYYADSVKGRFTISRDNAKNTVYLQMNSLKPEDTAVYYCNTVQYRNEMGYWGQGTQVTVSS,high polyreactivity
4,QVQLVESGGGLVQAGGSLRLSCAASGSIFRPNAMGWYRQAPGKERELVAAITFRGSRTYYADSVKGRFTISRDNAKNPVYLQMNSMKPEDTAVYYCNRLAGQDQEFEYWGQGTQVTVSS,high polyreactivity
5,QVQLEESRGGLVQAGGSLRLSCAASGFIIKHYAMGWYRQAPRKERELVAAISKRGGSTYYADSVKGRFTISRDNAKNTVYLQMNSLKPEDTAVYYCNAYLYVWHYPSGDEYDYWGQGTQVTVSS,high polyreactivity
6,QVQLVESGGSLVQAGGSLRLSCAASGSTLYYNAMGWYRQAPGKERELVAAISWSGGSTYYADSVKGRFTISRDNAKNTVYLQMNSLKPEDTSVYYCAADQSTVLDVGSWGQGTQVTVSS,low polyreactivity
7,QVQLVESGGGLVKAGGSLRLSCDASGRIFKYYAMGWYRPAPGKEWELVAAISSVGYTNYADSVKGRFTISRDNAKNTVYLQLNSLKPEDTAVYYCAAPYQHYDVNYDSWGQGTQVTVSS,low polyreactivity
8,KVQLVESGGGLVQAGGSLRFSCAASGFIFRNYAMGWYRQAPGKERELVAAITARGTRTYYSDSVKGRFTISRDNAKNTVYLQMNSLKPEDTAVYYCAAVVLPSRQYDYWGQGTQVTVSS,high polyreactivity
9,QVQLVESGGGLVQAGGSLSLICAASGRTSVVNAMGWYRKAPGKERELVAAITSGGSTHYADSVKGRFTISRDNAKNTVYLQMNSLKPEDTAVYYCTKRGHPARLGYYYWGQGTQVTVSS,low polyreactivity
10,QVQLVESGGGLVQAGGSLRLSCAASGFILDNYAMGWYRQAPGKERELVAAISGSGGSTFYADSVKGRFTISRDNAKNTVYLQMNSLKSEDTAVYYCNRDRLLRQYDYWGQGTQVTVSS,high polyreactivity
11,QVQLVESGGGLVQAGGSLRLSCAASGSTFAANPMGWYRQAPGKERELVAAITSSGGSTYYADSVKGRFTISRDNAKNTVYLQMNSLKPEDTEVYYCNKDIERYVRIYDSWGQGTQVTVSS,low polyreactivity
12,QVQLVESGGGLVQAGGSLRLSCAASGSIFWTNAMGWYRQAPGKERELVAAITSGGNTNYADSVKGRFTISRDNAKNTVYLQMNSLKPEDTAVYYCAARYGRGWRRTYTQYDSWGQGTQVTVSS,low polyreactivity
13,QVQLVESGGGLDQAGGSLRLSCAASGRIFGFYAMGWYRQAPGKERELVAAITINTGSTSYADSVKGRFTISRDNAKNTVYFQMNSLKPEDTAVYYCATDAAAPKYDYWGQGTQVTVSS,low polyreactivity
14,QVQLVESGGGLVQAGGSLRLSCAASGFIFAQNAMGWYRQAPGKERELVAAISGSGGRTYYADSVKGRFTISRDNAKNTVYLQMNSLKPEDTAVYYCAAQYFSGYWGQGTQVTVSS,high polyreactivity
15,QVQLVESGGGLVQAGGSLRLSCAASGYIFYYNAMGWYRQAPGKERELVAVISRTGASTYYADSVKGRFTISRDNAKNTVYLQMNSLKPEDTAVYYCAVRYETVDGNWRYFYWGQGTQVTVSS,high polyreactivity
16,QFQLVESGGVLDQAGGSLRLSCAASGSNFTIYAIGWYRQAPGKERELVADISSGGSTYYADSVKGRFTISRDNAKNTVYLQMNSLNPEDTAVYYCAAGVFFFTFVYWGQGTQVTVSS,low polyreactivity
17,QVQLVESGGGVVQAGGSLRLSSAASGRIFQAYAMGWYRQAPGKEWELVAAISRSGGGTYYSDSVKGRFTISRDYAKNTVYLQMNSLKPEDTAVYYCNARGSTARGRGYWGQGTQVTVTS,high polyreactivity
18,QVQLVESGGGLVQAGGSLRLSCAASGRIFLNYDMGWYTQAPGKERELVADISISGSTDYADSVKWRFTISRDNAKKTVYLQMNCLKPEDTAVYYCATSFYVSDYYVPYEMGYWGQGTQVTVSS,low polyreactivity
19,QVQLVESGGGLVQAGGRLRLRCAASGSTFSYYAMGWYRQAPGKERELVADISSGGTTNYADSVKGRFTISRDNAKNTVYLQMNSLKPEDTSVYYCNRRYSYYDGFDYWGQGTQVTVSS,low polyreactivity
20,QVQLVESGGGLVQAGGSLRLSCAASGRIFNYYAMGWSRQAPGKERELVAAIRTGGSTYYADSVKGRFTISRDNAKNTVYLQMNSLKPEDTAVYYCARLVYYSSPYGYWGQGTQVTVSS,high polyreactivity
21,QVQLVESGGGLVQAGGSLRLSCAASGSTFVRYVMGWYRQATGKERELVAAISRRGGSTYYADSVKGRFTISRDNAKNTVYLQMNSLKPEDTAVYYCARTVGYRTLLESDSWGQGTQVTVSS,high polyreactivity
